Patent US6066502

Assays:
[1] = biological target: human big endothelin-1 (human) (UniProt P05305)
[2] = biological target: human big endothelin-1 (human) (UniProt P05305); remark: listed apart in the source
[3] = biological target: human big endothelin-1 (human) (UniProt P05305); remark: listed apart in the source

Sequence of UniProt P05305 (P05305 53-90 limits assumed): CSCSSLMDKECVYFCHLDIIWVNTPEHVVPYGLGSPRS

endothelin converting enzyme (ECE-1) purified from FBHE bovine endothelial cells
Spec. activity [µU/mg] [1]: 15100 µU/mg

secreted human ECE (extracellular domain of human ECE fused to the signal peptide of human t-PA) (enzyme)
volume-based activity of the secreted ECE (µunits/ml of cell culture medium) [2]: < 10

B1: recombinant membrane-bound human ECE (complete human ECE expressed from pcDNA3neo in mammalian cells, colony 38) (enzyme)
chain: MSTYKRATLDEEDLVDSLSEGDAYPNGLQVNFHSPRSGQRCWAARTQVEKRLVVLVVLLAAGLVACLAALGIQYQTRSPSVCLSEACVSVTSSILSSMDPTVDPCHDFFSYACGGWIKANPVPDGHSRWGTFSNLWEHNQAIIKHLLENSTASVSEAERKAQVYYRACMNETRIEELRAKPLMELIERLGGWNITGPWAKDNFQDTLQVVTAHYRTSPFFSVYVSADSKNSNSNVIQVDQSGLGLPSRDYYLNKTENEKVLTGYLNYMVQLGKLLGGGDEEAIRPQMQQILDFETALANITIPQEKRRDEELIYHKVTAAELQTLAPAINWLPFLNTIFYPVEINESEPIVVYDKEYLEQISTLINTTDRCLLNNYMIWNLVRKTSSFLDQRFQDADEKFMEVMYGTKKTCLPRWKFCVSDTENNLGFALGPMFVKATFAEDSKSIATEIILEIKKAFEESLSTLKWMDEETRKSAKEKADAIYNMIGYPNFIMDPKELDKVFNDYTAVPDLYFENAMRFFNFSWRVTADQLRKAPNRDQWSMTPPMVNAYYSPTKNEIVFPAGILQAPFYTRSSPKALNFGGIGVVVGHELTHAFDDQGREYDKDGNLRPWWKNSSVEAFKRQTECMVEQYSNYSVNGEPVNGRHTLGENIADNGGLKAAYRAYQNWVKKNGAEHSLPTLGLTNNQLFFLGFAQVWCSVRTPESSHEGLITDPHSPSRFRVIGSLSNSKEFSEHFRCPPGSPMNPPHKCEVW
Spec. activity (µU/mg protein) (µU/mg protein) [3]: 12000
